Source: patent US20240052048A1

B1: GSK2857916 (positive control antibody, not coupled to the toxin molecule) (antibody, V domains shown)
VH: QVQLVQSGAEVKKPGSSVKVSCKASGGTFSNYWMHWVRQAPGQGLEWMGATYRGHSDTYYNQKFKGRVTITADKSTSTAYMELSSLRSEDTAVYYCARGAIYDGYDVLDNWGQGTLVTVSS
VL: DIQMTQSPSSLSASVGDRVTITCSASQDISNYLNWYQQKPGKAPKLLIYYTSNLHSGVPSRFSGSGSGTDFTLTISSLQPEDFATYYCQQYRKLPWTFGQGTKLEIK
B2: human BCMA (recombinant antigen, tag not stated for the assay), Q02223 1-54 (receptor, UniProt Q02223 1-54, looked up)
chain: MLQMAGQCSQNEYFDSLLHACIPCQLRCSSNTPPLTCQRYCNASVTNSVKGTNA

Columns and labels:
[1] = target: cyno-BCMA-His (cyno (monkey)); assay: ELISA (OD450), GSK2857916 titrated up to 10 µg/mL on Monkey BCMA-His; EC50 table in the figure
[2] = target: cyno-BCMA-Fc (cyno (monkey)); assay: ELISA (OD450), GSK2857916 titrated up to 10 µg/mL on Monkey BCMA-Fc; EC50 table in the figure
[3] = target: human-BAFF-Fc (human), Q9Y275; assay: ELISA (OD450), plate coated with BAFF 2 µg/ml, human BCMA titrated up to 10 µg/mL; EC50 table in the figure; conditions: remark: other sources report otherwise
Sequence of human-BAFF-Fc (human), Q9Y275 (Q9Y275 134-285 limits assumed): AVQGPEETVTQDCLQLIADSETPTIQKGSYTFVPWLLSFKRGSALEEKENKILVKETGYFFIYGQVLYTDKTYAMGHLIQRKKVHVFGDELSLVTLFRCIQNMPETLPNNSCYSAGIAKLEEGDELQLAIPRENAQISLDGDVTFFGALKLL

[4] = target: human-BAFF-Fc (human), Q9Y275; assay: ELISA (OD450), plate coated with BAFF 4 µg/ml, human BCMA titrated up to 10 µg/mL; EC50 table in the figure; conditions: remark: other sources report otherwise
[5] = target: human-BAFF-Fc (human), Q9Y275; assay: ELISA (OD450), plate coated with BAFF 8 µg/ml, human BCMA titrated up to 10 µg/mL; EC50 table in the figure; conditions: remark: other sources report otherwise
[6] = target: human-BAFF-Fc (human), Q9Y275; assay: ELISA (OD450), plate coated with BAFF 1 µg/ml, human BCMA titrated up to 10 µg/mL; EC50 table in the figure; conditions: remark: other sources report otherwise

| Binder | EC50 [1] [µg/mL] | EC50 [2] [µg/mL] | EC50 [3] [µg/mL] | EC50 [4] [µg/mL] | EC50 [5] [µg/mL] | EC50 [6] [µg/mL] |
| --- | --- | --- | --- | --- | --- | --- |
| B1 | 0.463 | 0.336 | – | – | – | – |
| B2 | – | – | 0.553 | 0.559 | 0.697 | 0.586 |
